{"source": "paper PMC6308570", "biological_target": "thrombin (UniProt P00734;P00734 328-363;364-622)", "assay": "etched fiber Bragg grating biosensor (immobilized aptamer); thrombin 10, 20, 40, 80 nM; 5 mM MgCl2; Affinity buffer 50 mM Tris-HCl pH 7.4, 250 mM NaCl, 5 mM MgCl2; 2 h incubation; surface blocked with 1% BSA; temperature not stated", "data": [{"binder": "TTTTTAGTCCGTGGTAGGGCAGGTTGGGGTGACT (ssDNA, 5' amino C6 (AmC6F))", "note": "[amine-modified thrombin binding aptamer (29-mer with T5 spacer)]", "values": [{"measurement": "binding result", "result": "binds"}]}]}
